Measured values taken from paper PMC6136348, “In the quest for new targets for pathogen eradication: the adenylosuccinate synthetase from the bacterium Helicobacter pylori” (Journal of Enzyme Inhibition and Medicinal Chemistry, 2018).

Target: the molecule itself
Experiment: SEC; Sephacryl S-200 HR column calibrated with marker proteins; 50 mM phosphate buffer pH 6.5, 150 mM NaCl, 2 mM EDTA, 1 mM DTT, +4 °C; sample loaded at ~15 mg/mL total protein (second step of the purification)

B1: Helicobacter pylori adenylosuccinate synthetase (AdSS) (enzyme, Helicobacter pylori (strain ATCC 26695), UniProt P56137 1-411, looked up)
chain: MADVVVGIQWGDEGKGKIVDRIAKDYDFVVRYQGGHNAGHTIVHKGVKHSLHLMPSGVLYPKCKNIISSAVVVSVKDLCEEISAFEDLENRLFVSDRAHVILPYHAKKDAFKEKSQNIGTTKKGIGPCYEDKMARSGIRMGDLLDDKILEEKLNAHFKAIEPFKKAYDLGENYEKDLMGYFKTYAPKICPFIKDTTSMLIEANQKGEKILLEGAQGTLLDIDLGTYPFVTSSNTTSASACVSTGLNPKAINEVIGITKAYSTRVGNGPFPSEDTTPMGDHLRTKGAEFGTTTKRPRRCGWLDLVALKYACALNGCTQLALMKLDVLDGIDAIKVCVAYERKGERLEIFPSDLKDCVPIYQTFKGWEKSVGVRKLDDLEPNVREYIRFIEKEVGVKIRLISTSPEREDTIFL
notes: Adenylosuccinate synthetase (AdSS, EC 6.3.4.4), product of the purA gene of Helicobacter pylori strain ATCC 26695; amplified from genomic DNA with primers for the 5' and the 3' end of the gene; theoretical monomer mass 45,742.72 Da; Cloned between NdeI and XhoI of pET21b; The printed reverse primer appears to carry a stop codon before the XhoI site, so the vector's C-terminal His tag is probably …
stoichiometry N: 2
